These results are taken from US20020086018A1 (published 2002).

In the experiment the target is T1, hTACI-Fc (soluble human TACI-Fc receptor fusion protein) (human, UniProt O14836 1-165).
T1 construct: also called shTACI-Fc; sTACI
T1 sequence: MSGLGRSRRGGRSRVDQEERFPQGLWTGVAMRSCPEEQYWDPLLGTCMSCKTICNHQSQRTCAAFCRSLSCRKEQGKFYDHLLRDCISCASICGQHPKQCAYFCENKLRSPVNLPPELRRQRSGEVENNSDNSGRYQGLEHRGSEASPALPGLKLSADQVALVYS
Description: BIAcore 2000; TACI-Fc immobilised on CM5, Flag-APRIL as analyte, 1:1 Langmuir model.

B1: Soluble murine APRIL-Flag protein (FLAG-tagged soluble mouse G70) (ligand)
chain: KHKKKHSVLHLVPVNITSKADSDVTEVMWQPVLRRGRGLEAQGDIVRVWDTGIYLLYSQVLFHDVTFTMGQVVSREGQGRRETLFRCIRSMPSDPDRAYNSCYSAGVFHLHQGDIITVKIPRANAKLSLSPHGTFLGFV
Regarding B1, the equilibrium dissociation constant (Kd) was found to be 1.48 nM.
